Biological target: myristylated PKA-Cα K7C (mouse, UniProt P05132 1-351, K7C, N-terminal myristylation)
Experiment: SPR

B1: phosphorylated SMO IFR→AAA (I573A, F577A, R580A; FLAG-tagged mouse SMO 64-674) in nanodiscs (receptor)
chain: LLSHCGRAAHCEPLRYNVCLGSALPYGATTTLLAGDSDSQEEAHGKLVLWSGLRNAPRCWAVIQPLLCAVYMPKCENDRVELPSRTLCQATRGPCAIVERERGWPDFLRCTPDHFPEGCPNEVQNIKFNSSGQCEAPLVRTDNPKSWYEDVEGCGIQCQNPLFTEAEHQDMHSYIAAFGAVTGLCTLFTLATFVADWRNSNRYPAVILFYVNACFFVGSIGWLAQFMDGARREIVCRADGTMRFGEPTSSETLSCVIIFVIVYYALMAGVVWFVVLTYAWHTSFKALGTTYQPLSGKTSYFHLLTWSLPFVLTVAILAVAQVDGDSVSGICFVGYKNYRYRAGFVLAPIGLVLIVGGYFLIRGVMTLFSIKSNHPGLLSEKAASKINETMLRLGIFGFLAFGFVLITFSCHFYDFFNQAEWERSFRDYVLCQANVTIGLPTKKPIPDCEIKNRPSLLVEKINLFAMFGTGIAMSTWVWTKATLLIWRRTWCRLTGHSDDEPKRIKKSKMAAKAASKARELLQNPGQELSFSMHTVSHDGPVAGLAFDLNEPSADVSSAWAQHVTKMVARRGAILPQDVSVTPVATPVPPEEQANMWLVEAEISPELEKRLG
modifications: GRK2/3-phosphorylated; mapped sites pS560, pS594, pT597, pS599, pS615, pS642, pT644, pT648
B1 was tested, and the Kd was 222 nM.

From article PMC11565934 (bioRxiv, 2024)
